Experimental data reported in publication PMC12218921, “An adaptive peptide-binding site in ubiquitin receptor hRpn13 revealed by structural studies” (Nature Communications, 2025).

Test system: hRpn13 Pru
Test: 1H-15N HSQC NMR of 15N-labeled hRpn13 Pru (1–150)
Type: binding, human
Conditions: 0.1 mM 15N-labeled protein, 600 MHz, 25 °C, pH 6.5

B1: hRpn13_ΔMTT: hRpn13 Pru variant with ENT M1 – T3, ^aG, and ^bP deleted (protein)
chain: GSSGALFPSLVPGSRGASNKYLVEFRAGKMSLKGTTVTPDKRKGLVYIQQTDDSLIHFCWKDRTSGNVEDDLIIFPDDCEFKRVPQCPSGRVYVLKFKAGSKRLFFWMQEPKTDQDEEHCRKVNEYLNNPPMPGALGASGSSGHELSAL
modifications: left off: GST, N-terminal, cleaved
notes: hRpn13 Pru variant with ENT M1 – T3, ^aG, and ^bP deleted
HSQC differences of hRpn13_ΔMTT versus hRpn13 (1–150): changes for a subset of amino acids in the Pru helix and proteasome-binding surface
